The record followed here is patent publication US20060210984A1.

Assay [1] addresses IL-1b (human) (UniProt P01584). Put plainly: sandwich microarray in flow cell, chemiluminescence, cytokine 1 ng/ml, divided by chip-specific PNA calibration factor; Chip 1.
Assay [2] addresses IL-1b (human) (UniProt P01584). Put plainly: sandwich microarray in flow cell, chemiluminescence, cytokine 1 ng/ml; Chip 1.
Assay [3] has as its target IL-1b (human) (UniProt P01584). Description: sandwich microarray in flow cell, chemiluminescence, cytokine 1 ng/ml; Chip 3.
For assay [4], the target named is IL-1b (human) (UniProt P01584). Put plainly: sandwich microarray in flow cell, chemiluminescence, cytokine 1 ng/ml, divided by chip-specific PNA calibration factor; Chip 2.
Assay [5] addresses IL-1b (human) (UniProt P01584). Description: sandwich microarray in flow cell, chemiluminescence, cytokine 1 ng/ml; Chip 5.
Assay [6] deals with IL-1b (human) (UniProt P01584). Description: sandwich microarray in flow cell, chemiluminescence, cytokine 1 ng/ml, divided by chip-specific PNA calibration factor; Chip 5.
In assay [7] the target is IL-1b (human) (UniProt P01584). Put plainly: sandwich microarray in flow cell, chemiluminescence, cytokine 1 ng/ml; Chip 2.
The target in assay [8] is IL-1b (human) (UniProt P01584). Description: sandwich microarray in flow cell, chemiluminescence, cytokine 1 ng/ml, divided by chip-specific PNA calibration factor; AVG of Chips 1-5.
The target in assay [9] is IL-1b (human) (UniProt P01584). Description: sandwich microarray in flow cell, chemiluminescence, cytokine 1 ng/ml; Chip 4.
In assay [10] the target is IL-1b (human) (UniProt P01584). Put plainly: sandwich microarray in flow cell, chemiluminescence, cytokine 1 ng/ml, divided by chip-specific PNA calibration factor; Chip 3.
The target of assay [11] is IL-1b (human) (UniProt P01584). Put plainly: sandwich microarray in flow cell, chemiluminescence, cytokine 1 ng/ml; AVG of Chips 1-5.
The target in assay [12] is IL-1b (human) (UniProt P01584). Put plainly: sandwich microarray in flow cell, chemiluminescence, cytokine 1 ng/ml, divided by chip-specific PNA calibration factor; Chip 4.
Assay [13] deals with IL-8 (human) (UniProt P10145). Put plainly: sandwich microarray in flow cell, chemiluminescence, cytokine 1 ng/ml, divided by chip-specific PNA calibration factor; Chip 1.
Chain of UniProt P10145 (P10145 28-99 limits assumed): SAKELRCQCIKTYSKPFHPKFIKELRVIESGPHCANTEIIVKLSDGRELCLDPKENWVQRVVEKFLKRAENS
Assay [14] deals with IL-8 (human) (UniProt P10145). Put plainly: sandwich microarray in flow cell, chemiluminescence, cytokine 1 ng/ml; Chip 1.
The target in assay [15] is IL-8 (human) (UniProt P10145). Put plainly: sandwich microarray in flow cell, chemiluminescence, cytokine 1 ng/ml; Chip 3.
In assay [16] the target is IL-8 (human) (UniProt P10145). Put plainly: sandwich microarray in flow cell, chemiluminescence, cytokine 1 ng/ml, divided by chip-specific PNA calibration factor; Chip 2.
In assay [17] the target is IL-8 (human) (UniProt P10145). Description: sandwich microarray in flow cell, chemiluminescence, cytokine 1 ng/ml; Chip 5.
The target of assay [18] is IL-8 (human) (UniProt P10145). Description: sandwich microarray in flow cell, chemiluminescence, cytokine 1 ng/ml, divided by chip-specific PNA calibration factor; Chip 5.
Assay [19] deals with IL-8 (human) (UniProt P10145). Description: sandwich microarray in flow cell, chemiluminescence, cytokine 1 ng/ml; Chip 2.
Assay [20] concerns the target IL-8 (human) (UniProt P10145). Description: sandwich microarray in flow cell, chemiluminescence, cytokine 1 ng/ml, divided by chip-specific PNA calibration factor; AVG of Chips 1-5.
Assay [21] deals with IL-8 (human) (UniProt P10145). Put plainly: sandwich microarray in flow cell, chemiluminescence, cytokine 1 ng/ml; Chip 4.
Assay [22] has as its target IL-8 (human) (UniProt P10145). Put plainly: sandwich microarray in flow cell, chemiluminescence, cytokine 1 ng/ml, divided by chip-specific PNA calibration factor; Chip 3.
Assay [23] concerns the target IL-8 (human) (UniProt P10145). Description: sandwich microarray in flow cell, chemiluminescence, cytokine 1 ng/ml; AVG of Chips 1-5.
Assay [24] concerns the target IL-8 (human) (UniProt P10145). Description: sandwich microarray in flow cell, chemiluminescence, cytokine 1 ng/ml, divided by chip-specific PNA calibration factor; Chip 4.
For assay [25], the target named is IL-10 (human) (UniProt P22301). Description: sandwich microarray in flow cell, chemiluminescence, cytokine 1 ng/ml, divided by chip-specific PNA calibration factor; Chip 1.
Chain of UniProt P22301 (P22301 19-178 limits assumed): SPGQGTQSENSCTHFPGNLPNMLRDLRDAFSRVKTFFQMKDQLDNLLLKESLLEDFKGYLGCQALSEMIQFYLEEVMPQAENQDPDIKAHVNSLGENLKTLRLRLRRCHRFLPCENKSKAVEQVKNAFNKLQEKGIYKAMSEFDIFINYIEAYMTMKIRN
Assay [26] concerns the target IL-10 (human) (UniProt P22301). Put plainly: sandwich microarray in flow cell, chemiluminescence, cytokine 1 ng/ml; Chip 1.
Assay [27] addresses IL-10 (human) (UniProt P22301). Put plainly: sandwich microarray in flow cell, chemiluminescence, cytokine 1 ng/ml; Chip 3.
The target in assay [28] is IL-10 (human) (UniProt P22301). Description: sandwich microarray in flow cell, chemiluminescence, cytokine 1 ng/ml, divided by chip-specific PNA calibration factor; Chip 2.
Assay [29] addresses IL-10 (human) (UniProt P22301). Description: sandwich microarray in flow cell, chemiluminescence, cytokine 1 ng/ml; Chip 5.
Assay [30] addresses IL-10 (human) (UniProt P22301). Put plainly: sandwich microarray in flow cell, chemiluminescence, cytokine 1 ng/ml, divided by chip-specific PNA calibration factor; Chip 5.
In assay [31] the target is IL-10 (human) (UniProt P22301). Description: sandwich microarray in flow cell, chemiluminescence, cytokine 1 ng/ml; Chip 2.
Assay [32] addresses IL-10 (human) (UniProt P22301). Put plainly: sandwich microarray in flow cell, chemiluminescence, cytokine 1 ng/ml, divided by chip-specific PNA calibration factor; AVG of Chips 1-5.
The target of assay [33] is IL-10 (human) (UniProt P22301). Description: sandwich microarray in flow cell, chemiluminescence, cytokine 1 ng/ml; Chip 4.
The target of assay [34] is IL-10 (human) (UniProt P22301). Put plainly: sandwich microarray in flow cell, chemiluminescence, cytokine 1 ng/ml, divided by chip-specific PNA calibration factor; Chip 3.
Assay [35] concerns the target IL-10 (human) (UniProt P22301). Description: sandwich microarray in flow cell, chemiluminescence, cytokine 1 ng/ml; AVG of Chips 1-5.
Assay [36] has as its target IL-10 (human) (UniProt P22301). Description: sandwich microarray in flow cell, chemiluminescence, cytokine 1 ng/ml, divided by chip-specific PNA calibration factor; Chip 4.
Assay [37] concerns the target IL-12p40 (human) (UniProt P29460). Put plainly: sandwich microarray in flow cell, chemiluminescence, cytokine 1 ng/ml, divided by chip-specific PNA calibration factor; Chip 1.
Chain of UniProt P29460 (P29460 23-328 limits assumed): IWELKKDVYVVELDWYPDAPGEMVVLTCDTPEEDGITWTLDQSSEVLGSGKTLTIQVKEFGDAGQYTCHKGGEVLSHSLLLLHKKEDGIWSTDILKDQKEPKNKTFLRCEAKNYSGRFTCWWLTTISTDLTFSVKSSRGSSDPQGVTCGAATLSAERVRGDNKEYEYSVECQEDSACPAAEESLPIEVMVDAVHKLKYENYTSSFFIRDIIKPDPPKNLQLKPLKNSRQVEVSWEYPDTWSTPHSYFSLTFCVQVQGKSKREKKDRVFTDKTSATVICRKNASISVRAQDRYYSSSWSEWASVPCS
The target is the same in assay [38]. Description: sandwich microarray in flow cell, chemiluminescence, cytokine 1 ng/ml; Chip 1.
The target is the same in assay [39]. Description: sandwich microarray in flow cell, chemiluminescence, cytokine 1 ng/ml; Chip 3.
The target is the same in assay [40]. Put plainly: sandwich microarray in flow cell, chemiluminescence, cytokine 1 ng/ml, divided by chip-specific PNA calibration factor; Chip 2.
Assay [41] has the same target. Put plainly: sandwich microarray in flow cell, chemiluminescence, cytokine 1 ng/ml; Chip 5.
Assay [42] has the same target. Description: sandwich microarray in flow cell, chemiluminescence, cytokine 1 ng/ml, divided by chip-specific PNA calibration factor; Chip 5.
Assay [43] has the same target. Put plainly: sandwich microarray in flow cell, chemiluminescence, cytokine 1 ng/ml; Chip 2.
For assay [44] the target is unchanged. Description: sandwich microarray in flow cell, chemiluminescence, cytokine 1 ng/ml, divided by chip-specific PNA calibration factor; AVG of Chips 1-5.
Assay [45] has the same target. Put plainly: sandwich microarray in flow cell, chemiluminescence, cytokine 1 ng/ml; Chip 4.
Assay [46] shares this target. Description: sandwich microarray in flow cell, chemiluminescence, cytokine 1 ng/ml, divided by chip-specific PNA calibration factor; Chip 3.
The target is the same in assay [47]. Description: sandwich microarray in flow cell, chemiluminescence, cytokine 1 ng/ml; AVG of Chips 1-5.
The target is the same in assay [48]. Put plainly: sandwich microarray in flow cell, chemiluminescence, cytokine 1 ng/ml, divided by chip-specific PNA calibration factor; Chip 4.

Chain of UniProt P01584 (P01584 117-269 limits assumed): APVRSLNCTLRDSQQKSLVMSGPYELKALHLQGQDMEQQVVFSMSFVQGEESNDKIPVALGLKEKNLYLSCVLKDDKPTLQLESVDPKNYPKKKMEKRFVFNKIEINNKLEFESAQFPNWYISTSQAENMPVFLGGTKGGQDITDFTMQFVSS

With “MAb IL-1b (monoclonal capture antibody of the anti-human IL-1b OptEIA matched pair, BD Biosciences-Pharmingen)”, the chemiluminescent spot intensity (Calibrated Data) was determined as 498 in assay [1]; 513 in assay [4]; 404 in assay [6]; 477 in assay [8]; 486 in assay [10]; 485 in assay [12]. Besides, the chemiluminescent spot intensity (Un-Calibrated Data) in [2] was 297; in assay [3], 486; in [5] it was 131; in assay [7], 150; in assay [9], 221; in assay [11] it was 257.

In the case of “MAb IL-8 (monoclonal capture antibody of the anti-human IL-8 OptEIA matched pair, BD Biosciences-Pharmingen)”, the chemiluminescent spot intensity (Calibrated Data) in [13] is 2960; in [16] it was 2750; in assay [18], 2790; in assay [20], 2900; in assay [22], 3100; in assay [24], 2900. In addition, the chemiluminescent spot intensity (Un-Calibrated Data) in [14] came out at 1760; in assay [15] it was 3100; in assay [17], 905; in assay [19] it was 804; in assay [21], 1320; in assay [23], 1580.

Consider “MAb IL-10 (monoclonal capture antibody of the anti-human IL-10 OptEIA matched pair, BD Biosciences-Pharmingen)”, for which the chemiluminescent spot intensity (Calibrated Data) is 1320 in assay [25]; 1330 in assay [28]; 1280 in assay [30]; 1280 in [32]; 1360 in assay [34]; 1120 in assay [36]. The chemiluminescent spot intensity (Un-Calibrated Data) came out at 788 in assay [26]; 1360 in [27]; 414 in assay [29]; 389 in [31]; 508 in [33]; 691 in assay [35].

Take “MAb IL-12p40 (monoclonal capture antibody of the anti-human IL-12p40 OptEIA matched pair, BD Biosciences-Pharmingen)”: the chemiluminescent spot intensity (Calibrated Data) in assay [37] is 300; in [40], 270; in assay [42], 268; in assay [44], 285; in assay [46], 312; in [48] it was 275. Further, the chemiluminescent spot intensity (Un-Calibrated Data) turned out to be 179 in assay [38]; 312 in assay [39]; 87 in assay [41]; 79 in [43]; 125 in assay [45]; 156 in assay [47].
